Results taken from the supplement of paper PMC10567573.

B1: NFE2L1 (parent)
chain: TLDGYGIHPKSIDLDNYFTARRLL

Variants of: B1
Assay: protein stability index of a GFP-peptide fusion (GPS, HEK-293T) (PSI 1-6); higher = more stable
Conditions: c terminus: a fixed tail appended
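Further: lentivirally expressed fusions sorted by FACS into six bins by GFP to DsRed ratio, PSI derived from sequencing read proportions per bin multiplied by bin number.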

First: TLDGYGIHPKSIDLDNYFTARVLL [R22V]
Second: TLDGYGIHPKSIDLDNYFNARRLL [T19N]
The protein stability index of the first is lower: 1.71 for the first, 2.09 for the second.

Going from TLDGYGIHPKSIDLDNYFHARRLL [T19H] to TLDGYGIHPKSIDLDNYFQARRLL [T19Q], the protein stability index falls from 2.32 to 1.77.

Compared with TLDGYGIHPKSIDLDNYFPARRLL [T19P], TLDGYGIHPKSIDLDNYFCARRLL [T19C] is lower in protein stability index: 2 for the first, 1.69 for the second.

Going from TLDGYGIHPKSIVLDNYFTARRLL [D13V] to TLDGYGIHPKSIILDNYFTARRLL [D13I], the protein stability index rises from 1.76 to 2.77.

Compared with TLDGYGIHPKSINLDNYFTARRLL [D13N], TLDGYGIHPKSIELDNYFTARRLL [D13E] is higher in protein stability index: 2.1 for the first, 2.45 for the second.

First: TLDGYGIHPKSIGLDNYFTARRLL [D13G]
Second: TLDVYGIHPKSIDLDNYFTARRLL [G4V]
The protein stability index of the first is higher: 2.25 for the first, 1.22 for the second.

First: TLDAYGIHPKSIDLDNYFTARRLL [G4A]
Second: TLDTYGIHPKSIDLDNYFTARRLL [G4T]
The protein stability index of the first is higher: 1.73 for the first, 1.55 for the second.

Compared with TLDDYGIHPKSIDLDNYFTARRLL [G4D], TLDRYGIHPKSIDLDNYFTARRLL [G4R] is lower in protein stability index: 2.57 for the first, 1.95 for the second.

First: TLDFYGIHPKSIDLDNYFTARRLL [G4F]
Second: TLDIYGIHPKSIDLDNYFTARRLL [G4I]
The protein stability index of the first is lower: 1.46 for the first, 1.65 for the second.

Compared with TLDGYWIHPKSIDLDNYFTARRLL [G6W], TLDGYEIHPKSIDLDNYFTARRLL [G6E] is higher in protein stability index: 1.54 for the first, 2.02 for the second.

Going from TLDGYHIHPKSIDLDNYFTARRLL [G6H] to TLDGYKIHPKSIDLDNYFTARRLL [G6K], the protein stability index falls from 1.97 to 1.91.

Going from TLDGYSIHPKSIDLDNYFTARRLL [G6S] to TLDGYRIHPKSIDLDNYFTARRLL [G6R], the protein stability index rises from 1.62 to 1.87.

First: TLDGYGIHPKSIDLHNYFTARRLL [D15H]
Second: TLDGYGIHPKSIDLCNYFTARRLL [D15C]
The protein stability index of the first is higher: 1.89 for the first, 1.48 for the second.

First: TLDGYGIHPKSIDLTNYFTARRLL [D15T]
Second: TLDGYGIHPKSIDLSNYFTARRLL [D15S]
The protein stability index of the first is lower: 1.77 for the first, 2.44 for the second.

Compared with TLDGYGIHPKSIDLRNYFTARRLL [D15R], TLEGYGIHPKSIDLDNYFTARRLL [D3E] is lower in protein stability index: 2.74 for the first, 2.14 for the second.

Compared with TLKGYGIHPKSIDLDNYFTARRLL [D3K], TLYGYGIHPKSIDLDNYFTARRLL [D3Y] is lower in protein stability index: 2.34 for the first, 2.25 for the second.

Compared with TLNGYGIHPKSIDLDNYFTARRLL [D3N], TLDGYGIHPKSIDLDNYYTARRLL [F18Y] is lower in protein stability index: 2.33 for the first, 1.99 for the second.

Compared with TLDGYGIHPKSIDLDNYMTARRLL [F18M], TLDGYGIHPKGIDLDNYFTARRLL [S11G] is lower in protein stability index: 2.08 for the first, 1.91 for the second.

Going from TLDGYGIHPKKIDLDNYFTARRLL [S11K] to TLDGYGIHPKFIDLDNYFTARRLL [S11F], the protein stability index falls from 2.58 to 2.29.

Compared with TLDGYGIHPKLIDLDNYFTARRLL [S11L], TLDGYGIHPESIDLDNYFTARRLL [K10E] is lower in protein stability index: 2 for the first, 1.65 for the second.

Going from TLDGYGIHPHSIDLDNYFTARRLL [K10H] to TLDGYGIHPRSIDLDNYFTARRLL [K10R], the protein stability index falls from 2.2 to 2.11.

Going from TLDGYGIHPQSIDLDNYFTARRLL [K10Q] to TLDGYGIHPVSIDLDNYFTARRLL [K10V], the protein stability index falls from 2.12 to 1.5.

Going from TLDGYGIHPSSIDLDNYFTARRLL [K10S] to TLDGYGIHPTSIDLDNYFTARRLL [K10T], the protein stability index falls from 2.22 to 1.94.

First: TLDGYGIHPDSIDLDNYFTARRLL [K10D]
Second: TLDGYGIHPWSIDLDNYFTARRLL [K10W]
The protein stability index of the first is higher: 2.37 for the first, 2.24 for the second.

Going from TLDGLGIHPKSIDLDNYFTARRLL [Y5L] to TLDGVGIHPKSIDLDNYFTARRLL [Y5V], the protein stability index rises from 2.3 to 2.42.

First: TLDGDGIHPKSIDLDNYFTARRLL [Y5D]
Second: TLDGMGIHPKSIDLDNYFTARRLL [Y5M]
The protein stability index of the first is higher: 2.8 for the first, 2.5 for the second.

First: TLDGRGIHPKSIDLDNYFTARRLL [Y5R]
Second: TLDGPGIHPKSIDLDNYFTARRLL [Y5P]
The protein stability index of the first is lower: 1.76 for the first, 2.13 for the second.

Going from TLDGYGIHPKSIDLDNYFTARRLP [L24P] to TLDGYGIHPKSIDLDNYFTARRLC [L24C], the protein stability index falls from 2.56 to 1.84.

First: TLDGYGIHPKSIDLDNYFTARRLI [L24I]
Second: TLDGYGIHPKSIDLDNYFTARRLT [L24T]
The protein stability index of the first is lower: 1.75 for the first, 2.42 for the second.

Going from TLDGYGIHPKSIDLDNYFTARRLE [L24E] to TLDGYGIHPKSIDLDNYFTARRLM [L24M], the protein stability index falls from 2.79 to 2.5.

First: TLDGYGIHPKSIDLDNYFTARRLA [L24A]
Second: TLDGYGIHPKSIDLDNYFTARRLG [L24G]
The protein stability index of the first is lower: 2.26 for the first, 2.56 for the second.

First: TLDGYGIHPKSIDLDNYFTARRLW [L24W]
Second: TLDGYGIHPKSIDLDMYFTARRLL [N16M]
The protein stability index of the first is higher: 2.31 for the first, 1.87 for the second.

First: TLDGYGIHPKSIDLDCYFTARRLL [N16C]
Second: TLDGYGIHPKSIDLDNYFTARRDL [L23D]
The protein stability index of the first is higher: 2.51 for the first, 2.4 for the second.

First: TLDGYGIHPKSIDLDNYFTARRAL [L23A]
Second: TLDGYGIHPKSIDLDNYFTARRNL [L23N]
The protein stability index of the first is higher: 2.62 for the first, 2.32 for the second.

Compared with TLDGYGIHPKSIDLDNYFTARRTL [L23T], TLDGYGIHPKSIDLDNYFTARRQL [L23Q] is higher in protein stability index: 2.17 for the first, 2.71 for the second.

First: TLDGYGIHPKSIDLDNYFTARRML [L23M]
Second: TLDGYGIHPKSIDLDNYFTAIRLL [R21I]
The protein stability index of the first is higher: 2.03 for the first, 1.6 for the second.

Going from TLDGYGIHPKSIDLDNYFTAARLL [R21A] to TLDGYGIHPKSIDLDNYFTAYRLL [R21Y], the protein stability index rises from 1.67 to 3.26.

First: TLDGYGIHPKSIDLDNYFTAWRLL [R21W]
Second: TLDGYGIHPKSIDLDNYFTATRLL [R21T]
The protein stability index of the first is lower: 1.08 for the first, 1.56 for the second.

Compared with TLDGYGIHPKSIDLDNYFTASRLL [R21S], TLDGYGIHPKSIDLDNYFTAKRLL [R21K] is higher in protein stability index: 1.69 for the first, 1.96 for the second.

Going from TLDGYGIHFKSIDLDNYFTARRLL [P9F] to TLDGYGIHNKSIDLDNYFTARRLL [P9N], the protein stability index rises from 1.55 to 2.66.

Going from TLDGYGIHKKSIDLDNYFTARRLL [P9K] to TLDGYGIHHKSIDLDNYFTARRLL [P9H], the protein stability index falls from 2.24 to 2.14.

Going from TLDGYGIHRKSIDLDNYFTARRLL [P9R] to TLDGYGIHPKSCDLDNYFTARRLL [I12C], the protein stability index falls from 2.22 to 2.18.

First: TLDGYGIHPKSVDLDNYFTARRLL [I12V]
Second: TLDGYGIHPKSADLDNYFTARRLL [I12A]
The protein stability index of the first is lower: 1.85 for the first, 1.89 for the second.

Going from TLDGYGIHPKSRDLDNYFTARRLL [I12R] to TLDGYGIHPKSHDLDNYFTARRLL [I12H], the protein stability index rises from 1.93 to 2.24.

Compared with TLDGYGIHPKSFDLDNYFTARRLL [I12F], TLDGYGIHPKSTDLDNYFTARRLL [I12T] is lower in protein stability index: 2.02 for the first, 1.99 for the second.

First: TLDGYGIHPKSDDLDNYFTARRLL [I12D]
Second: TLDGYGIHPKSQDLDNYFTARRLL [I12Q]
The protein stability index of the first is higher: 3.05 for the first, 2.33 for the second.

First: TLDGYGIHPKSNDLDNYFTARRLL [I12N]
Second: TLDGYGIHPKSEDLDNYFTARRLL [I12E]
The protein stability index of the first is lower: 1.93 for the first, 2.99 for the second.
